# From article PMC9822811 (2023)
# Target: recombinant SARS-CoV-2 RBD of original WT strain (SARS-CoV-2, UniProt P0DTC2 319-541)
# Assay: SPR
binder,measurement,value
"REGN10987 (antibody, V domains shown) VH: QVQLVESGGGVVQPGRSLRLSCAASGFTFSNYAMYWVRQAPGKGLEWVAVISYDGSNKYYADSVKGRFTISRDNSKNTLYLQMNSLRTEDTAVYYCASGSDYGDYLLVYWGQGTLVTVSS VL: QSALTQPASVSGSPGQSITISCTGTSSDVGGYNYVSWYQQHPGKAPKLMIYDVSKRPSGVSNRFSGSKSGNTASLTISGLQSEDEADYYCNSLTSISTWVFGGGTKLTVL",Kd,1.62 nM
